The record followed here is the RNAGym collection of RNA variant scans (doi:10.1021/acssynbio.7b00057).

To fix the notation:
B1: Pistol ribozyme (parent)
chain: GGGUCGUUGUUCCAUAAUCGCGUGGAUAUGGCACGCAAGUUUCUACCGGGCACCGUAAAUGUCCGACUGGAGCCGUUCGGGCGGCUAUAAACAGACCUCAGGCCCGAAGCGUGGCGGCACCUGCCGCCGGUGGUAAAAAAGAUCGGAAGAGCACACGUCU

In the data set the parent is B1. Kind of data set: aptazyme ON/OFF ratio, guanine; higher = stronger switching; co-transcriptional cleavage with and without guanine.
Consider GGGUCGUCUAUCCAUAAUCGCGUGGAUAUGGCACGCAAGUUUCUACCGGGCACCGUAAAUGUCCGACUGGAGCCGUUCGGGCGGCUAUAAACAGACCUCAGGCCCGAAGCGUGGCGGCACCUGCCGCCGGUGGUAAAAAAGAUCGGAAGAGCACACGUCU, for which the “aptazyme ON/OFF ratio” value came to 1.42.

Take GGGUCGUCUUUGUAUAAUCGCGUGGAUAUGGCACGCAAGUUUCUACCGGGCACCGUAAAUGUCCGACUGGAGCCGUUCGGGCGGCUAUAAACAGACCUCAGGCCCGAAGCGUGGCGGCACCUGCCGCCGGUGGUAAAAAAGAUCGGAAGAGCACACGUCU: the “aptazyme ON/OFF ratio” value turned out to be 1.25.

GGGUCGUCUUUGGAUAAUCGCGUGGAUAUGGCACGCAAGUUUCUACCGGGCACCGUAAAUGUCCGACUGGAGCCGUUCGGGCGGCUAUAAACAGACCUCAGGCCCGAAGCGUGGCGGCACCUGCCGCCGGUGGUAAAAAAGAUCGGAAGAGCACACGUCU: the “aptazyme ON/OFF ratio” value turned out to be 1.17.

In the case of GGGUCGUCUUUGAAUAAUCGCGUGGAUAUGGCACGCAAGUUUCUACCGGGCACCGUAAAUGUCCGACUGGAGCCGUUCGGGCGGCUAUAAACAGACCUCAGGCCCGAAGCGUGGCGGCACCUGCCGCCGGUGGUAAAAAAGAUCGGAAGAGCACACGUCU, the “aptazyme ON/OFF ratio” value is 1.21.

GGGUCGUCCUGGUAUAAUCGCGUGGAUAUGGCACGCAAGUUUCUACCGGGCACCGUAAAUGUCCGACUGGAGCCGUUCGGGCGGCUAUAAACAGACCUCAGGCCCGAAGCGUGGCGGCACCUGCCGCCGGUGGUAAAAAAGAUCGGAAGAGCACACGUCU: the “aptazyme ON/OFF ratio” value was determined as 1.09.

GGGUCGUCCUGGAAUAAUCGCGUGGAUAUGGCACGCAAGUUUCUACCGGGCACCGUAAAUGUCCGACUGGAGCCGUUCGGGCGGCUAUAAACAGACCUCAGGCCCGAAGCGUGGCGGCACCUGCCGCCGGUGGUAAAAAAGAUCGGAAGAGCACACGUCU: the “aptazyme ON/OFF ratio” value amounted to 1.12.

Take GGGUCGUCCUGGGAUAAUCGCGUGGAUAUGGCACGCAAGUUUCUACCGGGCACCGUAAAUGUCCGACUGGAGCCGUUCGGGCGGCUAUAAACAGACCUCAGGCCCGAAGCGUGGCGGCACCUGCCGCCGGUGGUAAAAAAGAUCGGAAGAGCACACGUCU: the “aptazyme ON/OFF ratio” value came out at 1.12.

As to GGGUCGUCUUUUAAUAAUCGCGUGGAUAUGGCACGCAAGUUUCUACCGGGCACCGUAAAUGUCCGACUGGAGCCGUUCGGGCGGCUAUAAACAGACCUCAGGCCCGAAGCGUGGCGGCACCUGCCGCCGGUGGUAAAAAAGAUCGGAAGAGCACACGUCU, the “aptazyme ON/OFF ratio” value is 1.25.

Regarding GGGUCGUCUUUUUAUAAUCGCGUGGAUAUGGCACGCAAGUUUCUACCGGGCACCGUAAAUGUCCGACUGGAGCCGUUCGGGCGGCUAUAAACAGACCUCAGGCCCGAAGCGUGGCGGCACCUGCCGCCGGUGGUAAAAAAGAUCGGAAGAGCACACGUCU, the “aptazyme ON/OFF ratio” value came to 0.959.

On to GGGUCGUCUUUUGAUAAUCGCGUGGAUAUGGCACGCAAGUUUCUACCGGGCACCGUAAAUGUCCGACUGGAGCCGUUCGGGCGGCUAUAAACAGACCUCAGGCCCGAAGCGUGGCGGCACCUGCCGCCGGUGGUAAAAAAGAUCGGAAGAGCACACGUCU, for which the “aptazyme ON/OFF ratio” value came out at 1.04.

On to GGGUCGUCCUGAUAUAAUCGCGUGGAUAUGGCACGCAAGUUUCUACCGGGCACCGUAAAUGUCCGACUGGAGCCGUUCGGGCGGCUAUAAACAGACCUCAGGCCCGAAGCGUGGCGGCACCUGCCGCCGGUGGUAAAAAAGAUCGGAAGAGCACACGUCU, for which the “aptazyme ON/OFF ratio” value stood at 1.1.

In the case of GGGUCGUCCUGAGAUAAUCGCGUGGAUAUGGCACGCAAGUUUCUACCGGGCACCGUAAAUGUCCGACUGGAGCCGUUCGGGCGGCUAUAAACAGACCUCAGGCCCGAAGCGUGGCGGCACCUGCCGCCGGUGGUAAAAAAGAUCGGAAGAGCACACGUCU, the “aptazyme ON/OFF ratio” value is 1.14.

On to GGGUCGUCCUGAAAUAAUCGCGUGGAUAUGGCACGCAAGUUUCUACCGGGCACCGUAAAUGUCCGACUGGAGCCGUUCGGGCGGCUAUAAACAGACCUCAGGCCCGAAGCGUGGCGGCACCUGCCGCCGGUGGUAAAAAAGAUCGGAAGAGCACACGUCU, for which the “aptazyme ON/OFF ratio” value amounted to 1.09.

Regarding GGGUCGUCUUUGCAUAAUCGCGUGGAUAUGGCACGCAAGUUUCUACCGGGCACCGUAAAUGUCCGACUGGAGCCGUUCGGGCGGCUAUAAACAGACCUCAGGCCCGAAGCGUGGCGGCACCUGCCGCCGGUGGUAAAAAAGAUCGGAAGAGCACACGUCU, the “aptazyme ON/OFF ratio” value worked out at 1.42.

GGGUCGUCUUUACAUAAUCGCGUGGAUAUGGCACGCAAGUUUCUACCGGGCACCGUAAAUGUCCGACUGGAGCCGUUCGGGCGGCUAUAAACAGACCUCAGGCCCGAAGCGUGGCGGCACCUGCCGCCGGUGGUAAAAAAGAUCGGAAGAGCACACGUCU: the “aptazyme ON/OFF ratio” value came out at 1.37.

GGGUCGUCUUUUCAUAAUCGCGUGGAUAUGGCACGCAAGUUUCUACCGGGCACCGUAAAUGUCCGACUGGAGCCGUUCGGGCGGCUAUAAACAGACCUCAGGCCCGAAGCGUGGCGGCACCUGCCGCCGGUGGUAAAAAAGAUCGGAAGAGCACACGUCU: the “aptazyme ON/OFF ratio” value amounted to 1.42.

GGGUCGUCCUGACAUAAUCGCGUGGAUAUGGCACGCAAGUUUCUACCGGGCACCGUAAAUGUCCGACUGGAGCCGUUCGGGCGGCUAUAAACAGACCUCAGGCCCGAAGCGUGGCGGCACCUGCCGCCGGUGGUAAAAAAGAUCGGAAGAGCACACGUCU: the “aptazyme ON/OFF ratio” value amounted to 1.13.

GGGUCGUCCUGGCAUAAUCGCGUGGAUAUGGCACGCAAGUUUCUACCGGGCACCGUAAAUGUCCGACUGGAGCCGUUCGGGCGGCUAUAAACAGACCUCAGGCCCGAAGCGUGGCGGCACCUGCCGCCGGUGGUAAAAAAGAUCGGAAGAGCACACGUCU: the “aptazyme ON/OFF ratio” value came out at 1.19.

Take GGGUCGUCCUGUCAUAAUCGCGUGGAUAUGGCACGCAAGUUUCUACCGGGCACCGUAAAUGUCCGACUGGAGCCGUUCGGGCGGCUAUAAACAGACCUCAGGCCCGAAGCGUGGCGGCACCUGCCGCCGGUGGUAAAAAAGAUCGGAAGAGCACACGUCU: the “aptazyme ON/OFF ratio” value worked out at 1.12.

Turning to GGGUCGUCCUGCUAUAAUCGCGUGGAUAUGGCACGCAAGUUUCUACCGGGCACCGUAAAUGUCCGACUGGAGCCGUUCGGGCGGCUAUAAACAGACCUCAGGCCCGAAGCGUGGCGGCACCUGCCGCCGGUGGUAAAAAAGAUCGGAAGAGCACACGUCU, the “aptazyme ON/OFF ratio” value was 1.1.

Take GGGUCGUCCUGCGAUAAUCGCGUGGAUAUGGCACGCAAGUUUCUACCGGGCACCGUAAAUGUCCGACUGGAGCCGUUCGGGCGGCUAUAAACAGACCUCAGGCCCGAAGCGUGGCGGCACCUGCCGCCGGUGGUAAAAAAGAUCGGAAGAGCACACGUCU: the “aptazyme ON/OFF ratio” value worked out at 1.19.

As to GGGUCGUCCUGCAAUAAUCGCGUGGAUAUGGCACGCAAGUUUCUACCGGGCACCGUAAAUGUCCGACUGGAGCCGUUCGGGCGGCUAUAAACAGACCUCAGGCCCGAAGCGUGGCGGCACCUGCCGCCGGUGGUAAAAAAGAUCGGAAGAGCACACGUCU, the “aptazyme ON/OFF ratio” value is 1.09.

For the variant GGGUCGUCUUUAAAUAAUCGCGUGGAUAUGGCACGCAAGUUUCUACCGGGCACCGUAAAUGUCCGACUGGAGCCGUUCGGGCGGCUAUAAACAGACCUCAGGCCCGAAGCGUGGCGGCACCUGCCGCCGGUGGUAAAAAAGAUCGGAAGAGCACACGUCU, the “aptazyme ON/OFF ratio” value stood at 1.28.

For GGGUCGUCUUUAUAUAAUCGCGUGGAUAUGGCACGCAAGUUUCUACCGGGCACCGUAAAUGUCCGACUGGAGCCGUUCGGGCGGCUAUAAACAGACCUCAGGCCCGAAGCGUGGCGGCACCUGCCGCCGGUGGUAAAAAAGAUCGGAAGAGCACACGUCU, the “aptazyme ON/OFF ratio” value is 1.19.

With GGGUCGUCUUUAGAUAAUCGCGUGGAUAUGGCACGCAAGUUUCUACCGGGCACCGUAAAUGUCCGACUGGAGCCGUUCGGGCGGCUAUAAACAGACCUCAGGCCCGAAGCGUGGCGGCACCUGCCGCCGGUGGUAAAAAAGAUCGGAAGAGCACACGUCU, the “aptazyme ON/OFF ratio” value came to 1.12.

As to GGGUCGUCCUGCCAUAAUCGCGUGGAUAUGGCACGCAAGUUUCUACCGGGCACCGUAAAUGUCCGACUGGAGCCGUUCGGGCGGCUAUAAACAGACCUCAGGCCCGAAGCGUGGCGGCACCUGCCGCCGGUGGUAAAAAAGAUCGGAAGAGCACACGUCU, the “aptazyme ON/OFF ratio” value is 1.03.

Take GGGUCGUCUUUCAAUAAUCGCGUGGAUAUGGCACGCAAGUUUCUACCGGGCACCGUAAAUGUCCGACUGGAGCCGUUCGGGCGGCUAUAAACAGACCUCAGGCCCGAAGCGUGGCGGCACCUGCCGCCGGUGGUAAAAAAGAUCGGAAGAGCACACGUCU: the “aptazyme ON/OFF ratio” value amounted to 1.08.

For GGGUCGUCUUUCUAUAAUCGCGUGGAUAUGGCACGCAAGUUUCUACCGGGCACCGUAAAUGUCCGACUGGAGCCGUUCGGGCGGCUAUAAACAGACCUCAGGCCCGAAGCGUGGCGGCACCUGCCGCCGGUGGUAAAAAAGAUCGGAAGAGCACACGUCU, the “aptazyme ON/OFF ratio” value came to 1.27.

With GGGUCGUCUUUCGAUAAUCGCGUGGAUAUGGCACGCAAGUUUCUACCGGGCACCGUAAAUGUCCGACUGGAGCCGUUCGGGCGGCUAUAAACAGACCUCAGGCCCGAAGCGUGGCGGCACCUGCCGCCGGUGGUAAAAAAGAUCGGAAGAGCACACGUCU, the “aptazyme ON/OFF ratio” value amounted to 1.03.

For GGGUCGUCCUGUUAUAAUCGCGUGGAUAUGGCACGCAAGUUUCUACCGGGCACCGUAAAUGUCCGACUGGAGCCGUUCGGGCGGCUAUAAACAGACCUCAGGCCCGAAGCGUGGCGGCACCUGCCGCCGGUGGUAAAAAAGAUCGGAAGAGCACACGUCU, the “aptazyme ON/OFF ratio” value amounted to 1.1.

With GGGUCGUCCUGUAAUAAUCGCGUGGAUAUGGCACGCAAGUUUCUACCGGGCACCGUAAAUGUCCGACUGGAGCCGUUCGGGCGGCUAUAAACAGACCUCAGGCCCGAAGCGUGGCGGCACCUGCCGCCGGUGGUAAAAAAGAUCGGAAGAGCACACGUCU, the “aptazyme ON/OFF ratio” value was determined as 1.09.

GGGUCGUCCUGUGAUAAUCGCGUGGAUAUGGCACGCAAGUUUCUACCGGGCACCGUAAAUGUCCGACUGGAGCCGUUCGGGCGGCUAUAAACAGACCUCAGGCCCGAAGCGUGGCGGCACCUGCCGCCGGUGGUAAAAAAGAUCGGAAGAGCACACGUCU: the “aptazyme ON/OFF ratio” value turned out to be 1.11.

As to GGGUCGUCCUCCUAUAAUCGCGUGGAUAUGGCACGCAAGUUUCUACCGGGCACCGUAAAUGUCCGACUGGAGCCGUUCGGGCGGCUAUAAACAGACCUCAGGCCCGAAGCGUGGCGGCACCUGCCGCCGGUGGUAAAAAAGAUCGGAAGAGCACACGUCU, the “aptazyme ON/OFF ratio” value turned out to be 1.04.

As to GGGUCGUCCUCCAAUAAUCGCGUGGAUAUGGCACGCAAGUUUCUACCGGGCACCGUAAAUGUCCGACUGGAGCCGUUCGGGCGGCUAUAAACAGACCUCAGGCCCGAAGCGUGGCGGCACCUGCCGCCGGUGGUAAAAAAGAUCGGAAGAGCACACGUCU, the “aptazyme ON/OFF ratio” value worked out at 1.11.

Consider GGGUCGUCCUCCGAUAAUCGCGUGGAUAUGGCACGCAAGUUUCUACCGGGCACCGUAAAUGUCCGACUGGAGCCGUUCGGGCGGCUAUAAACAGACCUCAGGCCCGAAGCGUGGCGGCACCUGCCGCCGGUGGUAAAAAAGAUCGGAAGAGCACACGUCU, for which the “aptazyme ON/OFF ratio” value came to 1.04.

Consider GGGUCGUCUUUCCAUAAUCGCGUGGAUAUGGCACGCAAGUUUCUACCGGGCACCGUAAAUGUCCGACUGGAGCCGUUCGGGCGGCUAUAAACAGACCUCAGGCCCGAAGCGUGGCGGCACCUGCCGCCGGUGGUAAAAAAGAUCGGAAGAGCACACGUCU, for which the “aptazyme ON/OFF ratio” value came out at 2.46.
